US7033773B1, “Screening assays for G protein coupled receptor agonists and antagonists” (The General Hospital Corporation, priority 1997, dated 2006)

Legend:
human PTH/PTHrP receptor [1] = biological target: T1, human PTH/PTHrP receptor (Homo sapiens, UniProt Q03431); assay: Cellular phosphate uptake in LLC-PK1 cells expressing human PTHR; type: cell-based; set-up: transfected with a full-length human PTH/PTHrP receptor cDNA; expressed in transfected cells; details: HKRK B28 and HKRK B7 cells; peptides 1000 nM, 6 hr
T1 sequence (Q03431 27-593): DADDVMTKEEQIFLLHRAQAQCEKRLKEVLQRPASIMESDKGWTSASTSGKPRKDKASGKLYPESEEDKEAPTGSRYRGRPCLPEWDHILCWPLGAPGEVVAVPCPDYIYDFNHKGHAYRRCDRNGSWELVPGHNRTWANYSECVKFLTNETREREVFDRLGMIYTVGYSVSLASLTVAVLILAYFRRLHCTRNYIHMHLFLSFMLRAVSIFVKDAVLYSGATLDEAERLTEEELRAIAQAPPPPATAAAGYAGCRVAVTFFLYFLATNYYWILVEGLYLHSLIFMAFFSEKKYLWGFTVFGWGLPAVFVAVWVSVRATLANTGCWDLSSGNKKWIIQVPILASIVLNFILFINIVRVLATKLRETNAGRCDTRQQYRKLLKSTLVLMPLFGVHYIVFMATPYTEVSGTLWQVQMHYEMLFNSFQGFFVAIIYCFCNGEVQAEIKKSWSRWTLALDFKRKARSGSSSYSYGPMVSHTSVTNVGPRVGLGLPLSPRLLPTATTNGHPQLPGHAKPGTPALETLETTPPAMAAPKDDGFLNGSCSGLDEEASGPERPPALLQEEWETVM
Procedure: FIG. 8. Regulation of phosphate uptake by PTH in HKRK B7 and HKRK B28 cells. […] Results are expressed as percentage of basal, and each bar represents the mean±SEM of a representative experiment performed in triplicate. Similar results were obtained from at least 5 individual experiments. Cells were seeded into 24-well plates at a density of 2.5×10^5 cells/well and cultured for a further 2 days before study. Twenty four hours before assay, cells were refed with 0.5 ml of DMEM containing 0.1% BSA. The next day, cells were refed with serum-free medium (DMEM+0.1% BSA) containing drugs or peptides, and the incubations were continued at 37° C. under 5% CO2 in air for another 6 hr. Cells then were washed with prewarmed Buffer B without BSA and Na2HPO4 and then were incubated at 37° C. for 5 min in 0.25 ml of the same buffer containing [^32P]orthophosphate (4 uCi/ml) and 0.1 mM Na2HPO4. Phosphate uptake was arrested by adding 1 ml of ice-cold sodium-free “stop buffer” [10 mM HEPES (pH 7.4), 140 mM choline chloride, and 5 mM sodium arsenate], followed by two further washes with same buffer. The drained cell layer then was solubilized in 0.5 ml of Lysis Buffer, and cell-associated radioactivity was determined by Cerenkov counting, as previously described (Guo, J., et al., Endocrinology 136:3884-3891 (1995)).

rat PTHR = biological target: T2, rat PTHR (Rattus norvegicus, UniProt P25961); assay: IP3 production (PLC activation) in LLC-PK1 cells expressing rat PTHR; type: cell-based
T2 construct: expressed in transfected cells; host or cells: LLC-PK1 porcine renal epithelial cells (EW5; also EW29, AR-C38, AR-B44)
T2 sequence (P25961 27-591): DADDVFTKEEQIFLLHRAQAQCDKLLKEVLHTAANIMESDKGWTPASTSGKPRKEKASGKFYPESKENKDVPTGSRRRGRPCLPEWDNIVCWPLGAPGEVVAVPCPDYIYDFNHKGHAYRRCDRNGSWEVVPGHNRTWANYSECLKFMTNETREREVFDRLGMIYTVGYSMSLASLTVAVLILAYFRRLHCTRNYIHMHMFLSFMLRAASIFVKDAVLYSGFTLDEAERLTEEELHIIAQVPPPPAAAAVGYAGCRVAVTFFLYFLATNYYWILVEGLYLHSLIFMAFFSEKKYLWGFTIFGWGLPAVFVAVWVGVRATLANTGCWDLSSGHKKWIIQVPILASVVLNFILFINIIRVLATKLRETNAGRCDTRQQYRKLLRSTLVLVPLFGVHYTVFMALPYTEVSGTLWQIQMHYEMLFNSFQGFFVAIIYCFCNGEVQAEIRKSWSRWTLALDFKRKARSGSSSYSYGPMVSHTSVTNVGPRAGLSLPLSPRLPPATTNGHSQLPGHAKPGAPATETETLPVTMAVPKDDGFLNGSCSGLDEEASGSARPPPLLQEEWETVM
Procedure: Cells were seeded into 24-well plates at a density of 2.5×10^5 cells/well and cultured for a further 2 days before study. The cells were labeled at 37° C. for 16 h before assay with 3 uCi/ml of [^3H]myo-inositol in assay medium (serum- and inositol-free DMEM (GIBCO-BRL, Grand Island, N.Y.) supplemented with 0.1% BSA). After washing the cells with prewarmed assay medium containing 30 mM LiCl, they were incubated with 0.25 ml of assay medium containing 30 mM LiCl and stimulators (or vehicle) at 37° C. for various intervals(1-30 min). IP3 formation was arrested by aspiration and immediate addition of 0.5 ml of ice-cold 5% TCA. The acid extracts then were extracted twice with two volumes of water-saturated ether and adjusted to pH 7.4 with concentrated NaOH and Tris base (final concentration=10 mM) prior to chromatography on AG 1×8 anion-exchange columns (Bio-Rad, Richmond, Calif.), as previously described (Guo, J., et al., Endocrinology 136:3884-3891 (1995)). After eluting other fractions (free [^3H]myo-inositol, glycerophosphate inositol, IP1, and IP2), IP3 fractions were collected and their content of radioactivity was determined by liquid scintillation spectrometry (Beckman, model LS 6000IC).
Responses to hPTH(1-34) or hPTH(1-31) (1000 nM) were measured in EW5 cells, which express 320,000 rat PTHRs per cell. Each value is the mean±SEM of a representative experiment performed in triplicate. Similar results were obtained in at least 3 individual experiments. The modest reduction in IP3 formation observed with hPTH(1-31) relative to hPTH(1-34) was confirmed in 3 other LLC-PK1 cell lines that expressed rat PTHRs (i.e. EW29, AR-C38 and AR-B44, which express 190,000, 630,000 and 800,000 PTHRs/cell, respectively), in which maximal IP3 formation after hPTH(1-31) (as % of hPTH(1-34) effect) was 75%, 77% and 64%, respectively.

human PTH/PTHrP receptor [2] = biological target: T1, human PTH/PTHrP receptor; assay: Cytosolic free calcium (fura-2) in LLC-PK1 cells expressing human PTHR; details: 100 nM peptide; HKRK B7 cells
Procedure: Cytosolic free calcium was measured in fura 2AM-loaded confluent monolayers of cells.
Cytosolic free calcium was measured by dual fluorescence in cells loaded with the Ca^2+-sensitive intracellular probe fura-2. Cells were seeded onto glass coverslips at a density of 40,000-600,000/cm^2 and incubated for 2 days as described above. Coverslips were washed twice with PBS before loading in phosphate-free Buffer B containing 4 uM of fura-2/AM (Molecular Probes, Eugene, Oreg.) for 30 min at room temperature (22° C.). After washing twice with fura-free Buffer B, the coverslips were mounted in a cuvette containing 2 ml of phosphate-free Buffer B at 37° C. and the emission at 510 nm in response to alternating excitation at 340 and 380 nm was monitored using a ratiometric PTI Deltascan fluorescence spectrometer with excitation and emission bandwidths of 2 nm. After achieving a stable baseline, agonists were introduced by exchange into 2 ml of fresh buffer to which 10-20 ul of concentrated agonist stock (or vehicle alone) had been added. Peptide stocks were prepared in 0.1% trifluoroacetic acid, ionomycin and phorbol esters were dissolved in dimethyl sulfoxide and all other additives were prepared in water. Maximum and minimum fluorescence signals were obtained by exposure to modified buffers containing 1 uM ionomycin plus 20 mM calcium or 2 mM EGTA in the nominal absence of calcium, respectively, and autofluorescence was estimated from signals obtained in the presence of ionomycin plus 2.5 mM MnCl2.

maximal IP3 formation (as % of hPTH(1-34) effect) (rat PTHR; AR-B44 cells, 800,000 rat PTHRs/cell): 64% | maximal IP3 formation (as % of hPTH(1-34) effect) (rat PTHR; AR-C38 cells, 630,000 rat PTHRs/cell): 77% | maximal IP3 generation relative to that by hPTH(1-34) (rat PTHR; EW5 cells (and 3 other rPTHR-expressing cell lines)): approximately 70% | IP3 Formation (rat PTHR; EW5 cells, 320,000 rat PTHRs per cell, peptide 1000 nM, mean±SEM): 316 ± 35 % of basal | maximal IP3 formation (as % of hPTH(1-34) effect) (rat PTHR; EW29 cells, 190,000 rat PTHRs/cell): 75% | maximal PLC activation as % of the maximal response to hPTH(1-34) (rat PTHR; LLC-PK1 cells that expressed rat PTHRs): 60% | reduction of potency for PLC/PKC activation relative to hPTH(1-34) (rat PTHR; via the rat PTHR): 40%
Substance: hPTH(1-31)
maximal activation of phosphate uptake (in words) (human PTH/PTHrP receptor [1]): comparable maximal activation of phosphate uptake | cytosolic free calcium transients (human PTH/PTHrP receptor [2]): fully activated cytosolic free calcium transients
